According to patent US20130244255A1, “ANTIBODIES DIRECTED TO GPNMB AND USES THEREOF” (priority 2006, published 2013):

Columns and labels:
[1] = target: GPNMB (CG56972) as expressed by human cell lines (human) (UniProt Q14956); assay: FACS on UACC-62 cells, antibody 1 ug/mL
[2] = target: GPNMB (CG56972) as expressed by human cell lines (human) (UniProt Q14956); assay: flow cytometry on SK-MEL-2 cells, anti human IgG PE; control sample
[3] = target: GPNMB (CG56972) as expressed by human cell lines (human) (UniProt Q14956); assay: flow cytometry on HEK293 cells transfected with GPNMB plasmid, secondary antibody alone (background); on empty-vector cells printed as 5.86
[4] = target: GPNMB (CG56972) as expressed by human cell lines (human) (UniProt Q14956); assay: flow cytometry on HEK293 cells transfected with GPNMB plasmid, PE-conjugated secondary antibody; the same sample on empty-vector cells is printed as 7.96

GPNMB (CG56972) as expressed by human cell lines (human), sequence (Q14956 23-492): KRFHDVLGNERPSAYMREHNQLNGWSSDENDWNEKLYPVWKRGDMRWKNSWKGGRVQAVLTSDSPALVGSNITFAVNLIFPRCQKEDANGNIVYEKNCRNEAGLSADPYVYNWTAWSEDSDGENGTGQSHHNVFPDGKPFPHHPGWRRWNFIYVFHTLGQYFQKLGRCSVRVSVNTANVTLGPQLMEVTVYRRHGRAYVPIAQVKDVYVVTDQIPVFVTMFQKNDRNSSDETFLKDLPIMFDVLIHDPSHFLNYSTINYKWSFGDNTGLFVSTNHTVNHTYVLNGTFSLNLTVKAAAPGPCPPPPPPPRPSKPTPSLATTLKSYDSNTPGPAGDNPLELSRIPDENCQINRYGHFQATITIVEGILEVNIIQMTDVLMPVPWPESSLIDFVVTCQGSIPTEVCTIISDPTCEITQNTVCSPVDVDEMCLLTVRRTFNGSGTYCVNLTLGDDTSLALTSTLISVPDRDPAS

CR011.2.6.2 (antibody) was tested, and the Geo Mean Ratio (relative to pK16) [1] was 1.9.

In the case of Control (antibody), the Geo Mean [2] is reported as 3.03 and the Median [2] is reported as 2.84.

With Secondary Ab-PE (antibody) the Geometric mean [3] was 7.69.

isotype-matched control IgG2 antibody showed a Geometric mean [4] of 8.63.
